Test results taken from patent US20250264455.

Target: T1, P2-TmEnc^BC2-Tag
T1 chain: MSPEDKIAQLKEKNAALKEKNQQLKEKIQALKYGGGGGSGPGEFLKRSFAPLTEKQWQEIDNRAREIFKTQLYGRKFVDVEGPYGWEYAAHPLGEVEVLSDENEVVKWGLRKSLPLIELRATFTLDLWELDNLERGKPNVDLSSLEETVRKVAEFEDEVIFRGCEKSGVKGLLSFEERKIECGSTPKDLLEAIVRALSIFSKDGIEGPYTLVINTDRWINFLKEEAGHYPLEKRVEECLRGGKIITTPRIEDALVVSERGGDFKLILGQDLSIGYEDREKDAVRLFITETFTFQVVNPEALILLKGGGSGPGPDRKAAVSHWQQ

B1: BmTyr-P1 (protein)
chain: MGHSNKYRVRKNVLHLTDTEKRDFVRTVLILKEKGIYDRYIAWHGAAGKFHTPPGSDRNAAHMSSAFLPWHREYLLRFERDLQSINPEVTLPYWEWETDAQMQDPSQSQIWSADFMGGNGNPIKDFIVDTGPFAAGRWTTIDEQGNPSGGLKRNFGATKEAPTLPTRDDVLNALKITQYDTPPWDMTSQNSFRNQLEGFINGPQLHNRVHRWVGGQMGVVPTAPNDPVFFLHHANVDRIWAVWQIIHRNQNYQPMKNGPFGQNFRDPMYPWNTTPEDVMNHRKLGYVYDIELRKSKRSSGGGGSGGGGSTGSPEDEIQALEEENAQLEQENAALEEEIAQLEYGSGSETPGTSESATPESAISHGFPPEVEEQAAGTLPMSCAQESGMDRHPAACASARINV
  melanin formation on CN-PAGE: melanin formation could be demonstrated by color formation on CN-PAGE
  melanin formation on clear native PAGE: The dark high molecular weight bands at 1.0 MDa represent melanin-loaded TmEnc nanospheres
